Target: the molecule itself
Experiment: cryo-EM structure; purified f1pIV (~0.7 mg/ml) in 1% CHAPS, 25 mM Na HEPES pH 8.0, 500 mM NaCl, 0.5 mM EDTA, on graphene oxide-coated lacey carbon grids; 2D class averages and a 3D reconstruction with C15 symmetry, 2.7 Å

B1: f1 pIV secretin (His-tagged f1pIV with the stabilizing S318I mutation) (natural protein, bacteriophage f1, UniProt P03666 22-426, looked up)
chain: QVIEMNNSSLRDFVTWYSKQTGESVIVSPDVKGTVTVYSSDVKPENLRDFFISVLRANNFDMVGSIPSIIQKYNPNNQDYIDELPSSDNQEYDDNSAPSGGFFVPQNDNVTQTFKINNVRAKDLIRVVELFVKSNTSKSSNVLSVDGSNLLVVSAPKDILDNLPQFLSTVDLPTDQILIEGLIFEVQQGDALDFSFAAGSQRGTVAGGVNTDRLTSVLSSAGGSFGIFNGDVLGLSVRALKTNSHSKILSVPRILTLSGQKGSISVGQNVPFITGRVTGESANVNNPFQTVERQNVGISMSVFPVAMAGGNIVLDITIKADSLSSSTQASDVITNQRSIATTVNLRDGQTLLLGGLTDYKNTSQDSGVPFLSKIPLIGLLFSSRSDSNEESTLYVLVKATIVRAL
notes: pIV secretin (gene IV protein, virion export protein) of filamentous bacteriophage f1; mature protein of 405 residues (N0 1-88, linker 89-107, N3 108-172, linker 173-174, secretin domain 175-405); S318 is residue 339 of the precursor (318 + 21 signal residues); also called f1pIV secretin channel; copies: 15
- stoichiometry N: 15
